Data as given in US8030025B2, “Antibodies directed to angiopoietin-1 and angiopoietin-2 and uses thereof” (Amgen Inc., dated 2011).
Numbering of substitutions follows the chain as printed.

B1: H4L4 (IgG2) (antibody, V domains shown)
VH: EVQLVQSGGGVVQPGRSLRLSCAASGFTFSSYGMHWVRQAPGKGLEWVSYISSSGSTIYYADSVKGRFTISRDNAKNSLYLQMNSLRAEDTAVYYCARDLLDYDLLTGYGYWGQGTLVTVSS
VL: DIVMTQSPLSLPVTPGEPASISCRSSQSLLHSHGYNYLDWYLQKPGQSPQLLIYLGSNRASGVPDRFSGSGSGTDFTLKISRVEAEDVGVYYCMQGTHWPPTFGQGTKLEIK
B2: 536 LC1 (antibody, V domains shown)
VH: B1 VH with L105I
VL: not shown

Tests used:
Assay in all cases: neutralization ELISA; coated angiopoietin vs Tie2-Fc
Cyno Ang2 = Cyno Ang2 (cynomolgus monkey, UniProt A0A2K5VNX6)
Rabbit Ang2 = Rabbit Ang2 (rabbit, UniProt G1T9B3)
Murine Ang2 = Murine Ang2 (mouse, UniProt O35608)
Human Ang2 = Human Ang2 (human, UniProt O15123)
Murine Ang1 = Murine Ang1 (mouse, UniProt O08538)
Rabbit Ang1 = Rabbit Ang1 (rabbit, UniProt G1SK98)
Cyno Ang1 = Cyno Ang1 (cynomolgus monkey, UniProt A0A2K5VW43)
Human Ang1 = Human Ang1 (human, UniProt Q15389)

Binder	IC50 (Cyno Ang2) [nM]	IC50 (Rabbit Ang2) [nM]	IC50 (Murine Ang2) [nM]	IC50 (Human Ang2) [nM]	IC50 (Murine Ang1) [nM]	IC50 (Rabbit Ang1) [nM]	IC50 (Cyno Ang1) [nM]	IC50 (Human Ang1) [nM]
B1	0.24	0.15	0.15	0.22	3.3	2.8	4	3.2
B2	0.19	0.2	0.14	0.27	305	502	531	515
